In the RNAGym collection of RNA variant scans (doi:10.7554/elife.80360):

B1: HDV Ribozyme (parent)
chain: GGCCGGCAUGGUCCCAGCCUCCUCGCUGGCGCCGGCUGGGCAACAUUCCGAGGGGACCGUCCCCUCGGUAAUGGCGAAUGGGACCCA

Variants of: B1
Experiment: self-cleavage, relative activity (ratio to wild type); higher = more cleavage; co-transcriptional

For GGCCGGCAUGGUCCCAGCCUCCUCACUGGCGCCGGCUGGGCAACAUUCCGAGGGGACCGUCCCCUCGGUAAUUGCGAAUGGGACCCA, which self-cleavage is on record?
Its self-cleavage is 0.0702.

Which self-cleavage does the source give for GGCCGGCAUGGUCCCAGCCUCCUCACUGGCGCCGGCUGGGCAACAUUCCGAGGGGACCGUCCCCUCGGUAAUAGCGAAUGGGACCCA here?
Its self-cleavage is 0.0583.

For GGCCGGCAUGGUCCCAGCCUCCUCACUGGCGCCGGCUGGGCAACAUUCCGAGGAGACCGUCCCCUCGGUAAUGGCGAAUGGGACCCA, which self-cleavage is on record?
The self-cleavage was 0.242.

For GGCCGGCAUGGUCCCAGCCUCCUCACUGGCGCCGGCUGGGCAACAUUCCGAGGUGACCGUCCCCUCGGUAAUGGCGAAUGGGACCCA, which self-cleavage is on record?
The self-cleavage was 0.202.

With GGCCGGCAUGGUCCCAGCCUCCUCACUGGCGCCGGCUGGGCAACAUUCCGAGGGGACCGUCCCCUCGUUAAUGGCGAAUGGGACCCA as the variant, how does the self-cleavage read?
The self-cleavage was 0.247.

Which self-cleavage does the source give for GGCCGGCAUGGUCCCAGCCUCCUCACUGGCGCCGGCUGGGCAACAUUCCGAGGGGACCGUCCCCUCGAUAAUGGCGAAUGGGACCCA here?
The self-cleavage was 0.179.

Which self-cleavage does the source give for GGCCGGCAUGGUCCCAGCCUCCUCACUGGCGCCGGCUGGGCAACAUUCCGAGGGGACCGGCCCCUCGGUAAUGGCGAAUGGGACCCA here?
The self-cleavage was 0.125.

Which self-cleavage does the source give for GGCCGGCAUGGUCCCAGCCUCCUCACUGGCGCCGGCUGGGCAACACUCCGAGGGGACCGUCCCCUCGGUAAUGGCGAAUGGGACCCA here?
The self-cleavage was 0.0831.

For GGCCGGCAUGGUCCCAGCCUCCUCACUGGCGCCGGCUGGGCAACAGUCCGAGGGGACCGUCCCCUCGGUAAUGGCGAAUGGGACCCA, which self-cleavage is on record?
Its self-cleavage is 0.262.

With GGCCGGCAUGGUCCCAGCCUCCUCACUGGCGCCGGCUGGGCAACAAUCCGAGGGGACCGUCCCCUCGGUAAUGGCGAAUGGGACCCA as the variant, how does the self-cleavage read?
The self-cleavage was 0.

With GGCCGGCAUGGUCCCAGCCUCCUCACUGGCGCCGGCUGGGCAACAUUCCGAGGGGACCGUCCCCUCGGCAAUGGCGAAUGGGACCCA as the variant, how does the self-cleavage read?
The self-cleavage was 0.302.

With GGCCGGCAUGGUCCCAGCCUCCUCACUGGCGCCGGCUGGGCAACAUUCCGAGGGGACCGUCCCCUCGGUAAUGGCGAAUGCGACCCA as the variant, how does the self-cleavage read?
Its self-cleavage is 0.258.

Which self-cleavage does the source give for GGCCGGCAUGGUCCCAGCCUCCUCACUGGCGCCGGCUGGGCAACAUUCCGAGGGGACCGUCCCCUCGGUAAUGGCGAAUGUGACCCA here?
Its self-cleavage is 0.112.

With GGCCGGCAUGGUCCCAGCCUCCUCACUGGCGCCGGCUGGGCAACAUUCCGAGGGGACCGUCCCCUCGGUAAUGGCGAAUUGGACCCA as the variant, how does the self-cleavage read?
The self-cleavage was 0.0923.

With GGCCGGCAUGGUCCCAGCCUCCUCACUGGCGCCGGCUGGGCAACAUUCCGAGGGGACCGUCCCCUCGGUAAUGGCGAAUAGGACCCA as the variant, how does the self-cleavage read?
Its self-cleavage is 0.126.

Which self-cleavage does the source give for GGCCGGCAUGGUCCCAGCCUCCUCACUGGCGCCGGCUGGGCAACAUUCCGAGGGGACCGUCCCCUCGGUAAUGGCGAAUCGGACCCA here?
The self-cleavage was 0.12.

For GGCCGGCAUGGUCCCAGCCUCCUCACUGGCGCCGGCUGGGCAACAUUCCGAGGGGACCGUCCCCACGGUAAUGGCGAAUGGGACCCA, which self-cleavage is on record?
Its self-cleavage is 0.122.

For GGCCGGCAUGGUCCCAGCCUCCUCACUGGCGCCGGCUGGGCAACAUUCCGAGGGGACCGUCCCCGCGGUAAUGGCGAAUGGGACCCA, which self-cleavage is on record?
Its self-cleavage is 0.269.

With GGCCGGCAUGGUCCCAGCCUCCUCACUGGCGCCGGCUGGGCAACAUUCCGAGGGGACCGUCCCCUCGGUAAUGGCAAAUGGGACCCA as the variant, how does the self-cleavage read?
The self-cleavage was 0.203.

For GGCCGGCAUGGUCCCAGCCUCCUCACUGGCGCCGGCUGGGCAACAUUCCGAGGGGACCGUCCCCUCGGUAAUGGCUAAUGGGACCCA, which self-cleavage is on record?
Its self-cleavage is 0.3.

With GGCCGGCAUGGUCCCAGCCUCCUCACUGGCGCCGGCUGGGCAACAUUCCGAGGGGACCGUCCCCUCUGUAAUGGCGAAUGGGACCCA as the variant, how does the self-cleavage read?
The self-cleavage was 0.401.

Which self-cleavage does the source give for GGCCGGCAUGGUCCCAGCCUCCUCACUGGCGCCGGCUGGGCAACAUUCCGAGGGUACCGUCCCCUCGGUAAUGGCGAAUGGGACCCA here?
The self-cleavage was 0.128.

For GGCCGGCAUGGUCCCAGCCUCCUCACUGGCGCCGGCUGGGCAACAUUCCGAGGGAACCGUCCCCUCGGUAAUGGCGAAUGGGACCCA, which self-cleavage is on record?
Its self-cleavage is 0.193.

Which self-cleavage does the source give for GGCCGGCAUGGUCCCAGCCUCCUCACUGGCGCCGGCUGGGCAACAUUCCGAGGGGACCGUCCCCUCGGUAACGGCGAAUGGGACCCA here?
The self-cleavage was 0.227.

For GGCCGGCAUGGUCCCAGCCUCCUCACGGGCGCCGGCUGGGCAACAUUCCGAGGGGACCGUCCCCUCGGUAAUGGCGAAUGGGACCCA, which self-cleavage is on record?
The self-cleavage was 0.133.

With GGCCGGCAUGGUCCCAGCCUCCUCACCGGCGCCGGCUGGGCAACAUUCCGAGGGGACCGUCCCCUCGGUAAUGGCGAAUGGGACCCA as the variant, how does the self-cleavage read?
The self-cleavage was 0.538.

With GGCCGGCAUGGUCCCAGCCUCCUCACUGGCGCCGGCUGGGCAACAUCCCGAGGGGACCGUCCCCUCGGUAAUGGCGAAUGGGACCCA as the variant, how does the self-cleavage read?
Its self-cleavage is 0.107.

Which self-cleavage does the source give for GGCCGGCAUGGUCCCAGCCUCCUCACUGGCGCCGGCUGGGCAACAUUCCGAGGGGACCGUCCCCUCGGUAAUGUCGAAUGGGACCCA here?
The self-cleavage was 0.0583.

For GGCCGGCAUGGUCCCAGCCUCCUCACUGGCGCCGGCUGGGCAACAUUCCGAGGGGACCGUCCCCUCGGUAAUGCCGAAUGGGACCCA, which self-cleavage is on record?
Its self-cleavage is 0.163.

For GGCCGGCAUGGUCCCAGCCUCCUCACUGGCGCCGGCUGGGCAACAUUCCGAGGGGACCGUCCCCUCGGUAAUGACGAAUGGGACCCA, which self-cleavage is on record?
The self-cleavage was 0.0767.

For GGCCGGCAUGGUCCCAGCCUCCUCACUGGCGCCGGCUGGGCAACAUUCCGAGGGGACCCUCCCCUCGGUAAUGGCGAAUGGGACCCA, which self-cleavage is on record?
Its self-cleavage is 0.332.

Which self-cleavage does the source give for GGCCGGCAUGGUCCCAGCCUCCUCACUGGCGCCGGCUGGGCAACAUUCCGAGGGGACCGUCCCCUCGGUAAUGGCGAAUGGAACCCA here?
Its self-cleavage is 0.0978.
